Measurements from patent US6921496.

Target: IgG (immobilised on resin in a column)
Assay: IgG-functionalised resin column, about 15 min reaction, buffer wash; effluent monitored for nanoparticle luminescence

- percent of ionic bioconjugates retained by the column: 95 to 98%
Substance: protein G-zipper fusion protein (IgG binding b2 sub-domain of streptococcal protein G, linker, basic leucine zipper tail, hexahistidine), electrostatically attached to CdSe-ZnS dihydrolipoic acid nanoparticles (from UniProt P19909 373-427)
